In the supplement of paper PMC9112550, “Optimization of the antimicrobial peptide Bac7 by deep mutational scanning” (BMC Biology, 2022):

Tested on: Escherichia coli TOP10
Assay: shrunken log2 fold change of peptide-encoding DNA abundance (4.5 h post-induction vs induction); higher = less antimicrobial activity (less host growth inhibition)
Details: time post-induction: 4.5 h; library: site-saturation at positions 5, 18, 19, 20
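Further: peptides expressed intracellularly from a pBAD plasmid library in pooled LB shake-flask culture, induced with 0.3% L-arabinose, DNA abundance read by NGS, three biological replicates, DESeq2 with apeglm shrinkage.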

| Sequence | shrunken log2 fold change |
| --- | --- |
| RRIRPRPPRLPRPRPRPGIQPRP | -0.214 |
| RRIRPRPPRLPRPRPRPGIVPRP | -0.0451 |
| RRIRPRPPRLPRPRPRPGLDPRP | 0.0198 |
| RRIRPRPPRLPRPRPRPGLNPRP | 0.0174 |
| RRIRPRPPRLPRPRPRPGLQPRP | -0.0954 |
| RRIRPRPPRLPRPRPRPGMAPRP | 0.204 |
| RRIRPRPPRLPRPRPRPGNDPRP | -0.0392 |
| RRIRPRPPRLPRPRPRPGNEPRP | -0.247 |
| RRIRPRPPRLPRPRPRPGNNPRP | -0.103 |
| RRIRPRPPRLPRPRPRPGNRPRP | -0.0146 |
| RRIRPRPPRLPRPRPRPGPDPRP | 0.28 |
| RRIRPRPPRLPRPRPRPGPHPRP | 0.134 |
| RRIRPRPPRLPRPRPRPGPQPRP | 0.521 |
| RRIRPRPPRLPRPRPRPGRYPRP | 0.37 |
| RRIRPRPPRLPRPRPRPGVIPRP | -0.321 |
| RRIRPRPPRLPRPRPRPGVYPRP | 0.0962 |
| RRIRPRPPRLPRPRPRPGWKPRP | 0.269 |
| RRIRPRPPRLPRPRPRPGWLPRP | 0.468 |
| RRIRPRPPRLPRPRPRPGWQPRP | 0.0481 |
| RRIRPRPPRLPRPRPRPHDPPRP | 0.192 |
| RRIRPRPPRLPRPRPRPHDQPRP | 0.134 |
| RRIRPRPPRLPRPRPRPHEGPRP | 0.0172 |
| RRIRPRPPRLPRPRPRPHFVPRP | -0.144 |
| RRIRPRPPRLPRPRPRPHGCPRP | 0.0229 |
| RRIRPRPPRLPRPRPRPHGYPRP | -0.0483 |

| Sequence | shrunken log2 fold change |
| --- | --- |
| RRIRPRPPRLPRPRPRPHIEPRP | -0.646 |
| RRIRPRPPRLPRPRPRPHKMPRP | -0.403 |
| RRIRPRPPRLPRPRPRPHKYPRP | -0.29 |
| RRIRPRPPRLPRPRPRPHLHPRP | -0.0768 |
| RRIRPRPPRLPRPRPRPHNIPRP | -0.546 |
| RRIRPRPPRLPRPRPRPHPCPRP | -0.105 |
| RRIRPRPPRLPRPRPRPHPNPRP | 0.00254 |
| RRIRPRPPRLPRPRPRPHRGPRP | -0.0385 |
| RRIRPRPPRLPRPRPRPHSCPRP | -0.11 |
| RRIRPRPPRLPRPRPRPHSGPRP | -0.169 |
| RRIRPRPPRLPRPRPRPHTIPRP | -0.39 |
| RRIRPRPPRLPRPRPRPIAIPRP | 0.247 |
| RRIRPRPPRLPRPRPRPIDLPRP | -0.0858 |
| RRIRPRPPRLPRPRPRPIEYPRP | 0.0392 |
| RRIRPRPPRLPRPRPRPIGIPRP | 0.208 |
| RRIRPRPPRLPRPRPRPIICPRP | -0.188 |
| RRIRPRPPRLPRPRPRPIIDPRP | -0.297 |
| RRIRPRPPRLPRPRPRPIIYPRP | -0.256 |
| RRIRPRPPRLPRPRPRPIKFPRP | -0.908 |
| RRIRPRPPRLPRPRPRPIKKPRP | -0.00206 |
| RRIRPRPPRLPRPRPRPIKTPRP | 0.0751 |
| RRIRPRPPRLPRPRPRPILGPRP | -0.148 |
| RRIRPRPPRLPRPRPRPIMFPRP | -0.37 |
| RRIRPRPPRLPRPRPRPIMLPRP | -0.114 |
| RRIRPRPPRLPRPRPRPINGPRP | -0.482 |

| Sequence | shrunken log2 fold change |
| --- | --- |
| RRIRPRPPRLPRPRPRPINWPRP | -0.241 |
| RRIRPRPPRLPRPRPRPIPEPRP | 1.27 |
| RRIRPRPPRLPRPRPRPIPTPRP | 0.00223 |
| RRIRPRPPRLPRPRPRPIQDPRP | -0.239 |
| RRIRPRPPRLPRPRPRPIRGPRP | 0.182 |
| RRIRPRPPRLPRPRPRPIRTPRP | 0.289 |
| RRIRPRPPRLPRPRPRPIRYPRP | 0.00275 |
| RRIRPRPPRLPRPRPRPISAPRP | -0.0726 |
| RRIRPRPPRLPRPRPRPISEPRP | -0.303 |
| RRIRPRPPRLPRPRPRPISSPRP | -0.0101 |
| RRIRPRPPRLPRPRPRPITTPRP | -0.139 |
| RRIRPRPPRLPRPRPRPIVHPRP | -0.155 |
| RRIRPRPPRLPRPRPRPIVQPRP | -0.135 |
| RRIRPRPPRLPRPRPRPIVVPRP | -0.134 |
| RRIRPRPPRLPRPRPRPIWDPRP | -0.0628 |
| RRIRPRPPRLPRPRPRPIYCPRP | -0.102 |
| RRIRPRPPRLPRPRPRPIYHPRP | -0.466 |
| RRIRPRPPRLPRPRPRPIYSPRP | -0.225 |
| RRIRPRPPRLPRPRPRPKARPRP | 0.691 |
| RRIRPRPPRLPRPRPRPKDVPRP | -0.115 |
| RRIRPRPPRLPRPRPRPKEAPRP | -0.0122 |
| RRIRPRPPRLPRPRPRPKEIPRP | -0.0621 |
| RRIRPRPPRLPRPRPRPKETPRP | 0.0101 |
| RRIRPRPPRLPRPRPRPKGMPRP | 0.129 |
| RRIRPRPPRLPRPRPRPKGNPRP | -0.097 |

| Sequence | shrunken log2 fold change |
| --- | --- |
| RRIRPRPPRLPRPRPRPKGSPRP | 0.0684 |
| RRIRPRPPRLPRPRPRPKHRPRP | 0.0187 |
| RRIRPRPPRLPRPRPRPKIFPRP | -0.0976 |
| RRIRPRPPRLPRPRPRPKIHPRP | -0.427 |
| RRIRPRPPRLPRPRPRPKIKPRP | -0.0894 |
| RRIRPRPPRLPRPRPRPKLEPRP | 0.121 |
| RRIRPRPPRLPRPRPRPKLIPRP | -0.0783 |
| RRIRPRPPRLPRPRPRPKLSPRP | 0.331 |
| RRIRPRPPRLPRPRPRPKMFPRP | 0.149 |
| RRIRPRPPRLPRPRPRPKMLPRP | -0.222 |
| RRIRPRPPRLPRPRPRPKMRPRP | 0.903 |
| RRIRPRPPRLPRPRPRPKNLPRP | -0.0674 |
| RRIRPRPPRLPRPRPRPKNRPRP | 0.00526 |
| RRIRPRPPRLPRPRPRPKPQPRP | 0.397 |
| RRIRPRPPRLPRPRPRPKPSPRP | 0.699 |
| RRIRPRPPRLPRPRPRPKQAPRP | -0.0162 |
| RRIRPRPPRLPRPRPRPKSKPRP | -0.255 |
| RRIRPRPPRLPRPRPRPKSRPRP | 0.154 |
| RRIRPRPPRLPRPRPRPKTSPRP | 0.0127 |
| RRIRPRPPRLPRPRPRPKTTPRP | 0.507 |
| RRIRPRPPRLPRPRPRPKVLPRP | 0.038 |
| RRIRPRPPRLPRPRPRPKVNPRP | -0.148 |
| RRIRPRPPRLPRPRPRPKVYPRP | -0.292 |
| RRIRPRPPRLPRPRPRPKWGPRP | 0.0577 |
| RRIRPRPPRLPRPRPRPKWQPRP | 0.225 |

| Sequence | shrunken log2 fold change |
| --- | --- |
| RRIRPRPPRLPRPRPRPKWSPRP | -0.113 |
| RRIRPRPPRLPRPRPRPLAYPRP | -0.074 |
| RRIRPRPPRLPRPRPRPLCHPRP | -0.139 |
| RRIRPRPPRLPRPRPRPLDMPRP | -0.142 |
| RRIRPRPPRLPRPRPRPLDPPRP | 0.201 |
| RRIRPRPPRLPRPRPRPLFCPRP | -0.0561 |
| RRIRPRPPRLPRPRPRPLFNPRP | -0.444 |
| RRIRPRPPRLPRPRPRPLGHPRP | 0.163 |
| RRIRPRPPRLPRPRPRPLGPPRP | 0.153 |
| RRIRPRPPRLPRPRPRPLHAPRP | 0.282 |
| RRIRPRPPRLPRPRPRPLHEPRP | 0.236 |
| RRIRPRPPRLPRPRPRPLHHPRP | -0.0808 |
| RRIRPRPPRLPRPRPRPLITPRP | -0.357 |
| RRIRPRPPRLPRPRPRPLLDPRP | 0.0537 |
| RRIRPRPPRLPRPRPRPLPSPRP | 0.0677 |
| RRIRPRPPRLPRPRPRPLRMPRP | 0.596 |
| RRIRPRPPRLPRPRPRPLRRPRP | 0.805 |
| RRIRPRPPRLPRPRPRPLSEPRP | 0.126 |
| RRIRPRPPRLPRPRPRPLSKPRP | 0.14 |
| RRIRPRPPRLPRPRPRPLSMPRP | -0.33 |
| RRIRPRPPRLPRPRPRPLSTPRP | -0.0907 |
| RRIRPRPPRLPRPRPRPLVKPRP | -0.0409 |
| RRIRPRPPRLPRPRPRPLYDPRP | 2.73 |
| RRIRPRPPRLPRPRPRPMAVPRP | 0.0404 |
| RRIRPRPPRLPRPRPRPMDWPRP | 0.432 |

| Sequence | shrunken log2 fold change |
| --- | --- |
| RRIRPRPPRLPRPRPRPMGFPRP | -0.0125 |
| RRIRPRPPRLPRPRPRPMKLPRP | -0.0874 |
| RRIRPRPPRLPRPRPRPMLMPRP | 0.459 |
| RRIRPRPPRLPRPRPRPMMLPRP | -0.143 |
| RRIRPRPPRLPRPRPRPMPVPRP | 0.0347 |
| RRIRPRPPRLPRPRPRPMQRPRP | 0.195 |
| RRIRPRPPRLPRPRPRPMSEPRP | -0.327 |
| RRIRPRPPRLPRPRPRPMVCPRP | -0.0948 |
| RRIRPRPPRLPRPRPRPMWIPRP | -0.237 |
| RRIRPRPPRLPRPRPRPMWLPRP | 0.217 |
| RRIRPRPPRLPRPRPRPMYEPRP | -0.527 |
| RRIRPRPPRLPRPRPRPMYLPRP | -0.257 |
| RRIRPRPPRLPRPRPRPMYNPRP | -0.639 |
| RRIRPRPPRLPRPRPRPMYQPRP | -0.207 |
| RRIRPRPPRLPRPRPRPNCGPRP | -0.0429 |
| RRIRPRPPRLPRPRPRPNCMPRP | -0.16 |
| RRIRPRPPRLPRPRPRPNCTPRP | -0.0727 |
| RRIRPRPPRLPRPRPRPNFFPRP | 0.323 |
| RRIRPRPPRLPRPRPRPNHMPRP | -0.319 |
| RRIRPRPPRLPRPRPRPNIMPRP | -0.694 |
| RRIRPRPPRLPRPRPRPNKVPRP | -0.1 |
| RRIRPRPPRLPRPRPRPNLHPRP | -0.203 |
| RRIRPRPPRLPRPRPRPNLTPRP | 0.0262 |
| RRIRPRPPRLPRPRPRPNMPPRP | -0.405 |
| RRIRPRPPRLPRPRPRPNNDPRP | -0.544 |
